Experimental data taken from article PMC8123555, “Precision targeting of the plasminogen activator inhibitor‐1 mechanism increases efficacy of fibrinolytic therapy in empyema” (Physiological Reports, 2021).

How the values were obtained:
FITC‐fibrin = assay: Fibrinolytic activity in pleural fluids (FITC-fibrin film assay), TCN-induced injury; format: in vivo, rabbit; settings: PAI-1-TFT with 2.0 mg/kg DSP, chemically induced injury; for Steady-state level of pleural fluid fibrinolytic activity: relative to supplemented baseline
Experimental: A Pilot Fibrinolytic Assay (FPA96F) was used to measure fibrinolytic potential (Beckert et al., 2019; Florova et al., 2015) and fibrinolytic activity (Florova et al., 2015, 2018; Komissarov et al., 2016) in pleural fluid samples. To prepare a FITC‐fibrin film, a 1:1 mixture of FITC‐tagged and unlabeled fibrinogen (0.4 mg/ml) in 0.05 M Hepes/NaOH (pH 7.5, 130 mM NaCl, 5 mM CaCl2) buffer at room temperature was transferred to black 96‐well flat bottom plates from Costar (Corning Inc, NY). Human thrombin (final concentration 10 nM) was added to each well and plates were dried overnight in a dark chemical hood at room temperature. 96‐well plates with FITC‐fibrin film were washed three times with 0.3 ml of cold Hepes/NaOH buffer and stored at −20°C up to one year. Fibrinolytic activity in pleural fluids was calculated from the slopes of time‐dependences of an increase in the fluorescence emission at 512 nm (excitation at 490 nm) due to the degradation of FITC‐fibrin. Fibrinolytic potential was determined as the difference between fibrinolytic activity in samples of pleural fluid at baseline (BL) or 24 h measured with and without supplementation with sctPA (Florova et al., 2015). To determine whether PAI‐1‐TFT affects fibrinolytic potential in rabbits, BL values were plotted against fibrinolytic potential at 24 h and the linear correlation was determined using Sigmaplot 14.0.

[1] = system: plasminogen activating activity in pleural fluid; assay: Intrapleural inactivation of tPA and uPA plasminogen activating activity, empyema; format: in vivo, rabbit; settings: infectious pleural injury
Experimental: (§1) Amidolytic activity was measured in clear 96‐well flat bottom plates from Costar (Corning Inc.) using a Synergy™ HT Hybrid Reader (BioTek, Winooski, VT). Amidolytic activity was calculated from the initial slopes of the time traces of the change in absorbance at 405 nm upon hydrolysis of chromogenic as described previously (Komissarov et al., 2009, 2013). The plasminogen activating activity was determined from the relative rate of activation of exogenous Glu‐plasminogen added to the reaction mixture containing 0.1–0.5 µl of pleural fluid in 0.1 ml of Hepes buffer solution with BSA (1 mg/ml) as previously described (Florova et al., 2013, 2018). The reaction mixtures (0.1 ml in black 96‐well flat bottom plates from Costar) contained 100 nM of human Glu‐plasminogen with 0.2 mM of SN‐5 plasmin fluorogenic substrate (HTI, Essex Junction, VT). Plasmin activity was measured by recording changes in the fluorescence emission at 470 nm (F470) with time (excitation at 352 nm) using a Synergy™ HT Hybrid Reader (BioTek, Winooski, VT). The level of plasminogen activating activity [PA] was calculated from slopes of linear dependences of F470 from square of time (t^2) (F470 = A [PA] t^2 + B; where A and B are constants), and results of measurements of standards with known concentrations of tcuPA and tctPA as previously described (Komissarov et al., 2009, 2013). […]

[2] = system: Streptococcus pneumoniae induced empyema; settings: higher in empyema; ref Idell et al., 2007; cited from earlier work
Source text: (§2) Plasminogen Activator Inhibitor‐1 (PAI‐1) is a mechanism‐based inhibitor of tissue type (tPA) and urokinase (uPA) plasminogen activators (PAs) (Carrell et al., 1991; Chaillan‐Huntington et al., 1997; Mourik et al., 1984) used for fibrinolytic therapy. Levels of PAI‐1 increase by up to three orders of magnitude in empyema (pleural sepsis), and organizing pleural injury (Aleman et al., 2003; Chung et al., 2005; Philip‐Joet et al., 1995), limiting endogenous and exogenous plasminogen activating activity that could help prevent or treat uncontrolled fibrin deposition induced by inflammation. First, DSP alone was used to treat pleural injury in both models to determine its effects on the endogenous fibrinolytic system. The results (Figure 2) clearly indicate that even a relatively high dose of DSP (2.0 mg/kg) is insufficient to mobilize endogenous fibrinolysis effectively once pleural injury has developed; there was no reversal effect with DSP alone. DSP alone, even at a 4‐fold higher dose (8.0 mg/kg), was also ineffective (GLIS>10) in treatment of empyema (Figure 2). Next, PAI‐1‐TFT with ...

[3] = system: chemically induced (TCN) pleural injury; settings: bolus, ref Idell et al., 2007; cited from earlier work
Source text: as §2

[4] = system: plasminogen activating activity in pleural fluid; assay: Intrapleural inactivation of tPA and uPA plasminogen activating activity, TCN-induced injury; format: in vivo, rabbit; settings: during PAI-1-TFT of chemically induced pleural injury; slower phase, 10-40 min
Experimental: as §1

Substance	kobs of decrease in pleural fluid fibrinolytic activity to steady state (FITC‐fibrin) [min⁻¹]	Steady-state level of pleural fluid fibrinolytic activity (FITC‐fibrin) [%]	kobs of intrapleural inactivation ([1]; with 2.0–8.0 mg/kg DSP) [min⁻¹]	MED for empyema relative to MED in TCN-induced pleural injury [2] [fold]	Minimal effective dose (MED) of plasminogen activator alone [3] [mg/kg]	kobs of intrapleural inactivation of plasminogen activating activity [4] [min⁻¹]	kobs of intrapleural inactivation ([1]; with 2.0 mg/kg DSP) [min⁻¹]
Alteplase [sctPA, reference compound]	0.40 ± 0.11	2.7	0.024 ± 0.010	13.8	0.145	0.02 to 0.05	
Prourokinase [scuPA]	0.09 ± 0.06	5.6		4	0.5	0.02 to 0.05	0.014 ± 0.008
